Experiment: soluble on expression in E. coli; label from the status in PepcDB or PDB records

| Sequence | soluble on expression in E. coli |
| --- | --- |
| MSLAHRTVAMVLFNDVLLLDVTGPMDAFAIANRFLPAARQYRLLTLAEGQAVVRGSCGLKVVADRRLEDLPEAVDLLLVPGGPGAYDIALPGIERWLPKAVRQAKRFGAICTGVFLLGRAGLLNGYRCTTHWNYVERLAQAFPEAKVETEQIYVMDRCLITSGGITAGIDLALAVVAEDHGKALALEVAKVLLVARHRQGGQTPYGPLLAAVPRDDSPIARVQAYIVDHIEQAFTVQKMAELVAMSGRNFARTFLREVGITPLQYLQNARIDRTRKLLECGDLPMKVVAAQCGFGSDRHMRKVFFERIGMTPAQYRAQFGGEGHHHHHH | soluble |
| MSLALAIFDLDETLIHGDCASLWSEQMARLGWVDGKDFLRRDHELMEAYGRGHLQMEDYMAFSLEPIAGRTLEEVEHLVAPWVEEVIEPIIYGDACRCIAEHRKRGDRILIISASGTHLVGPIAARLGVDEYLAIELEAVNGVYTGKTHGVLTYREGKITRLLEWLDQEQENLEGASFYSDSRNDLPLLLRVDHPHVVNPDAVLREHAEINGWPTLSWSEGHHHHHH | soluble |
| MSLAMSKVKSITRESWILSTFPEWGSWLNEEIEQEQVAPGTFAMWWLGCTGIWLKSEGGTNVCVDFWCGTGKQSHGNPLMKQGHQMQRMAGVKKLQPNLRTTPFVLDPFAIRQIDAVLATHDHNDHIDVNVAAAVMQNCADDVPFIGPKTCVDLWIGWGVPKERCIVVKPGDVVKVKDIEIHALDAFDRTALITLPADQKAAGVLPDGMDDRAVNYLFKTPGGSLYHSGDSHYSNYYAKHGNEHQIDVALGSYGENPRGITDKMTSADMLRMGEALNAKVVIPFHHDIWSNFQADPQEIRVLWEMKKDRLKYGFKPFIWQVGGKFTWPLDKDNFEYHYPRGFDDCFTIEPDLPFKSFLEGGSHHHHHH | soluble |
| MSLANLKVNLYGMEFLNPIMTAAGPGAKDGALCQEAAKGGAGAICTKTISVLPADVPRPCMAKTNSGFLNTELWSELPKEQWIEEEYKKVKETGLPVIVSMGYSAEQIAEVAPLVKPYADAVELSTHYVGTDVAPIVNALKAAKAVLDVPVFMKMSPHTDIQTIAKAVEEAGADGLVMINSFGPCMAIDVNTGYPIMGSKAGYGWLSGAPIRPLAIRCIYEASQVVNIPIIGVGGITCGKDVAEMMMAGASAVQVCTEAILKGPSIYGKIAKELNEFLDENGEGHHHHHH | not soluble |
| MSLANMHQEPDGSWMVEGQTTVRELNRVLKWGLPANGPRTLNGLILEHLESIPEAGTSLLIQGWPVTILQTQDNRVKMARVQPHHKRRRQPRRHEGHHHHHH | soluble |
| MSLANRIRLHIWGDYACFTRPEMKVERVSYDVITPSAARGILSAIHWKPAINWVIDKIYVLKPIRFESVRRNELGAKISESKVSGAMKRKSVADLYTVIEDDRQQRAATVLKDVAYVIEAHAVMTSKAGVDENTTKHIEMFKRRALKGQCFQQPCMGVREFPAHFALIDDNDPLPLSQLSESEFNRDLGWMLHDIDFEHGNTPHFFRAELKNGVIDVPPFYAEEVKREGHHHHHH | soluble |
| MSLAPLAPLRAHAGRRLTAGLDDATIERLATDHPTLRQAIEAAGSEYALVQAEVADLLDLDEDAQISAVQDGFINFYADDAVTPYVALAARGPWVITLKGAVLYDAGGYGMLGFGHTPEAVLDAMARPQVMANVMTPSLAQRKLDRALRAEIGHTRGGCPFARFMCLNSGSEAVGLAARIVDTNAKLHTDPGARHAGATIKRLVVKGSFHGRTDRPGLYSDSSRKTYSKYLASYRDEDSVIAIAPYDIAALQRAFDEAARNHWFIEAVFLEPVMGEGDPGRALPAEFYAAARTLTRNHGSLLLVDSIQAGLRAHGVLSVVDYPGFEQLDPPDLETYSKALNAAQYPLSVLAVTEQAAQVYRKGTYGNTMTTNPRALDVACATLALFTPQIRDNIRLRGAQALRKLEALQAELGGLITKVQGTGLLFSCELAPQYKCYGAGSTEEWLRHHGVNVIHGGENSLRFTPHFGMDEAELDLLVGLIAKALKEGPRQAQAEAEGHHHHHH | soluble |
| MSLAPRQVNCILRTNEHTQEFFGGSVKSYDSNQLASNSPIEDSRSEASCVHTSGLLLGIFDGHGGPACSQVISKRLMRYIAASLVPPDDLRQHVLNGAQSFSFLSCHNDKARCGYEIKELYEKSFHQFANELTNTTLAGFQMHQTLENAFIRLDQDLSREAIEMPSLRTMSVAMSGAVALVAHIDGPHLHVASVGDCSAVLGTVTDTGQWMAKKLTNEHNSDNVGEVRRLLSEHPATERDTVIRGERLLGQLAPLRAMGDFRYKWSREQLEQLVVPQFGEQVIAPYYLTPPYLSACPEITHHILTPRDKFLIIASDGLWDTMSAMQTVHLVGEHMYGKAFLQPLTLPKQDITLGEISQMLTTRKAGLQKKPLDRNAATHLIRNALGGTEYGVEHSKLSHMLSLPQDIVRLFRDDITITVVYFDSEYLEGHHHHHH | not soluble |
| MSLAQMPLTPNPDQHNAIQRVLKSLHHYQAFLLDGLTGSGKTEVYLQIMHEVLKQGKQVLVLVPEIGLTPQTISRFKSRFHCDVALLHSGLNDSKRLQAWQQAKMGKASIILGTRSAIYTPLPRLGLIILDEEHDLSYKQQEGFRYHARDVALYRGYLEQCPVILGSATPSIDSYHLVEQNKLELLQLNQRAGVALLPKMHLIDLKVAKKNEGLSQILIDQIQHTLDRQEQVLIFLNRRGYAPVLVCESCGWQANCPNCDAHFTLHTQPYGYLHCHHCGTIHRLPETCPECHHHTLKTLGMGTAKVEEHLKTLFPEHDVIRVDRDSTSRVGSWQKIYDRIQHNKPMILLGTQMLAKGHHFPYVTLVAILDIDAGLLSVDVRAPERTAQLIVQVAGRAGRGEHKGHVYMQTLRPDHPMLTTLIEKDYRAVAKDMLEERKAARLPPYRYSVLIRCESRDRDYSQAFLQEIAQMLQHQAGDSIEIWGPIPAPMERKAGRYRAHMVILAQDRARLHFFLRPWWAEVIQLPRQHQLRLSIDVDPQEFNEGHHHHHH | soluble |
| MSLARQNRFDRTSFQTQIIDLSHDGRGVARPHGEGDKVTFVTGALPGEVVIVEPVARNRHFDEARVVEVLQASPQRVIPRCSHFGVCSGCVLQHLAEDAQVVSKQRVLLESLERIGRVSPERVLPALAAESWGYRRKGRFSVRWVEKKGRTLVGFREHDPRFVADVSVCHTVVPQVGEKIALLATLLNSLDGRRDVPQIEFIAGDAVVALTVRHLQPLSEADRLALIEFGKEHGIAIFLQSGGVESVRLLWPDEVLLAFRLKPWDVEFVFRPLDFIQINGGLNEKMIAHALDLLGAGFGERVLDLFCGLGNFTLPLARTVDEVVGVEGDIGLVERARENARRNGLGNAEFFVADLTRDQRDAPWMRQGFDKLLLDPPRSGAIEVLKQLPLKMFERIVYVSCHPGSLARDADFLVNEQGFVLRAVGAMDMFPHTAHVESIAVFDRCEGHHHHHH | soluble |
| MSLARSVVVSAEAVYSHEGEYVGDHVLVDEGLVKSISRGEPHVSVGKRVAVKGFLLPPLVDAHLHMRSLGASFRIVNLKGASSPEEVAKRLAAANSPIAVGRGWNEEEFRPGSRLDRRILDSYLGEKPALAVRICGHVAVANSAFIRESGVDKLFPNLVDRERGLLLEDAVSYAVSVAMKTYNNEELLRDAASALASVGVFGVSSMACSEEEVRALSLIGDALEVRVACYLRRGVEPPPKRAGARWSIVGVKLFADGSLGGRTAYLRRPYISGENEGWRGLKLLSSRDIAEEAVSNSHRGLATAVHAIGDAALDEVLEGFSNAISRGVEPGMLRVEHASLAWPNQIDRLASLRVWTVVQPLFRVSDWWLESRVGSDMLQAAYPFASMLRAGVKLALSTDAPVETYDPAETFKAAVGLCSSRLCRESESLTPRETLKLYTLNSALASGGPVAWLGRLRRGAPALFAVANVDVLNSGRKELEKLKFRGLNLAKEGHHHHHH | soluble |
| MSLARTLVIGNKNYSSWSMRPWIALKATGVAFDEVVIPLYTGDADKRRILAFTPAGKVPVLVDGDVTIWDSLAIIEYAAERFPKAQLWPDDVAARAHARSVAAEMHSGFAALRNECGMNIHRPVGAKQLSDAARADIARVQEIWIDCRHRYGRFGPYLFGRFSGVDAMFAPVVHRFRTYAVELDPIAQGYVEVMMALPAFQEWTQAALAETWVIDKFETEGHHHHHH | soluble |
| MSLARTRILIVDDEDSIRFGMRDFLESRGYGVVDADSCQRARELFQASPPDVAVIDYRLHDGSAIDLLRDFRQIDADVPMIVLTAYGSIDLAVQAVKEGAEQFLTKPIEMPALHVILKRLLATRRLQRQQQVVATRDRRERVNPLSGGSPAIRDLAEQASKVMHTDSPILILGETGTGKSLLAKWLHHHGMRADEAFVDLNCAGLSPDFLETELFGHEKGAFTGATASKQGMLEIADGGTVFLDEIGDVDPRVQPKLLKVLEEKRFRRLGAVREREVDIRLIAATHHDLASKVKEGTFRSDLYFRISSIPLTMPALRDRKEDIVPLARTLLARSLADPSRTPQLTDDAALALREYAWPGNIREGHHHHHH | not soluble |
| MSLASLIGLAVCTGNAFSPALAAEAKQPNLVIIMADDLGYGDLATYGHQIVKTPNIDRLAQEGVKFTDYYAPAPLSSPSRAGLLTGRMPFRTGIRSWIPSGKDVALGRNELTIANLLKAQGYDTAMMGKLHLNAGGDRTDQPQAQDMGFDYSLANTAGFVTDATLDNAKERPRYGMVYPTGWLRNGQPTPRADKMSGEYVSSEVVNWLDNKKDSKPFFLYVAFTEVHSPLASPKKYLDMYSQYMSAYQKQHPDLFYGDWADKPWRGVGEYYANISYLDAQVGKVLDKIKAMGEEDNTIVIFTSDNGPVTREARKVYELNLAGETDGLRGRKDNLWEGGIRVPAIIKYGKHLPQGMVSDTPVYGLDWMPTLAKMMNFKLPTDRTFDGESLVPVLEQKALKREKPLIFGIDMPFQDDPTDEWAIRDGDWKMIIDRNNKPKYLYNLKSDRYETLNLIGKKPDIEKQMYGKFLKYKTDIDNEGHHHHHH | not soluble |
| MSLASVIADVPGMKTIVQVLTFRDYQYDDGWHQANIEVPAISGLEESGLGQALNQKYLEENKKLYEDFMADVEEMKALGDGHMGVDSGYEIKTDNERLLAIGRYVVNTVGSSSTVFKYDTIDKVDQVLITLPSLFKDDSYVQVISDYIVNEMKAKMKADSNLIYWVVTDENKDEVNYFEPFTQIKPEQSFYINSDYKLVISFDKYEVGPGVMGMQEFVIPTEVIADRLVSDEYVREGHHHHHH | soluble |
| MSLATAPPFERIETTGLQTLTPRELDELIESVAAVDNPTPLVDDESFLRRVTLDAIGRVPTEQEWKTFMEDPASNKRAKLIDRLLASEEYGANWANYWSDVFSYRTPSPELTFLSYDTPKHWLAEQLNNGVGWDQVSYQMLTGVGKVADNPAAFYVGYHQADVSRLAGESTRIFLGAQIQCAECHDHPFVDIPQERFHQMAAFFVRTKAELPWNDEGHHHHHH | soluble |
| MSLATKDPTAVERANLLNMAKLSIKGLIESALSFGRTLDSDYPPLQQFFVVMEHCLKHGLKGRKSFLSYNKTIWGPLELVEKLYPEAEEIGASVRDLPGLKTPLGRARAWLRLALMQKKMADYLRCLIIQRELLSEFYEYHALMMEEEGAVIVGLLVGLNVIDANLCVKGEDLDSQVGVIDFSMYLKNEEGHHHHHH | soluble |

From the DeepSol protein solubility set
